The DeepSol protein solubility set

Assay: soluble on expression in E. coli; label from the status in PepcDB or PDB records

Soluble on expression in E. coli, not soluble:
MGSDKIHHHHHHMKEQILEKLKTVKYPGFEKDIVSFNFVKDIKIQDDGVFIDIEIVSANPEVANEIRKNTIEALSSLALKNIELNIITPKIPEEKSNSRSGKNIAPQVKNFIMVSSGKGGVGKSTTTVNLAISMAKMGKRVGILDADIYGPNIPRMLGETKTQPEVVGQRLKPILTHGVYMMSMGVLIEEGQGLMWRGAMIMKAIEQLLADVIWPELDVLFLDMPPGTGDAQITSAQSIPIAAGVCVSTPQTVSLDDSKRALDMFNKLHIPIAGVIENMSGFLCPDNGKEYDIFGKGTAEDMAKAYKSEVLAQIPIEMIVREGGDEGKPVSFYHPESVSSKRYLMAAEKIWSFIEKINNEGGADNSAIQPVMNGKSACSH
MGSDKIHHHHHHMKEVLEVLPKTMKQLVENCKQYDALEEIRVRIGRPLECIAHGEVFFYDYIVTADDAIYLLNKLSHFSIYTMEEELKRGYVTLRGGHRIGLAGKVITEKSTVKMIRDVSSFNIRIARQKIGIAEPLLPYLYESRWLNTMVIGPPQTGKTTLLRDVARCMSQGVSTSKIPSCKVGIVDERSEIAGCVKGIPQYDFGTRVDVLDACPKAEGMMMMIRSMSPDILIVDEIGRKEDSEAIMEAVHAGVQLFISAHGFSYDDVVKRPSLKAVLELGIFDRFVELSKARGPGTVMQVKDKYGKPVLPHRKAESVC
MGSDKIHHHHHHMKFFDREKEIAEILHILNREPDDVYFIYGPINSGKTALINEIINNRLDKDKYVVFYFDLREIFISKYDDFIEVLFEEYEGNKKPVEIIKSLIKDVPSLCGIPAPKNTLEEILKKKTTKNVFRYITKVLMDIKKEGKQPILIIDELQKIGDMKINGFLIYELFNYFVSLTKHKHLCHVFCLSSDSLFIERVYNEAMLDGRAKYLLVDDFDKETALKFMDFLAKENNISLTNEDKELIYNYVGGKPKDIKYVVEESNFKDLKEVLDYLLNDEISKLDMFLEILDYSKPRVEVGNEVIEINKEDIIKALRLFKDKYEIPKKDIPTPVYVYLVKENILFLNPQKRILKPQSYLVWNAIKRLL
MGSDKIHHHHHHMKFLPLIAMCLFLTGCVGDRSDLELFVTTTKAQHVAHIPPLKEPPRFEHFAYQAELMRSPFVPPSRELTEEVVDTSKDCLQPDLKRRKGRLETYPLDNLKMRGTLSEADTTWALVETNDGSVYRMGTGEYLGLFNGRISKVTSQNVEVVELIPDGSGCWSERTSNLELSGE
MGSDKIHHHHHHMKFSLGPSLFFWPKNEVVDFYQQAKESSADVIYLGETVCSKRRELRAKDWLGLAQDVAQDTNKQVVVSTMTLLESPAEIQVLKRLCDNGEFLVEANDLSAVQIMHELKMPFVAGPAINCYNLSTLKVLLKQGMTRWLMPVELSGDWLKILLEQATEAGIRQQFECEVFSWGYLPLAYSARCFTARSEDKAKDDCEYCCIKYPEGRRMNSREGERVFVLNGIQTLSGYQYNLINEMPALDAMGVDIARISADSTEAFTQLDNFREQLVNPTRKELDGVTECNGFWHKIAGMSVA
MGSDKIHHHHHHMKGAAFVKKEGLKQKALEIGRVPTHLKLEIEDYGGDDKRAHFCWADPQDENTGIIVELGPDGELESLSRDIEPESGERLSEEKLEDIMRQFVETHHPGALSAFVREENDRAYGDKVRFSYVQMEAGLPLPMSGFMADVSLSGEIVYFRYYGEAGSIIKPKRVADVEEALAFIKKDVEFDLLFEVLHRSVYKNGDDQPHLVYEPEGRAITVPADLVQEEQAVDDDDDYREPESFPLPLFEGIREKADPDSMIGIENGFVKEREADLGDGRIGIVWRNPDDPVYQPADKSMDSWFKGRTHQVLKTIYNKETGKLEGVMSFMEKKGPLTVTLAECEKIALRFLFALFPNADQYFRIRYDEKDEEENAVAGFTFEAHCHGVPLRFGQIRICVSRQTGYITVYMGPDIDPNKLATIDPVPAISVEQAKSIFWQHFKVELGWEREYGDDEEHSYRLVYKPVYPHFIDAHTGEPVFSIW
MGSDKIHHHHHHMKGKHKVIVSTKRLKYEFELRRNLTIIQGDSATGKTTLVDMIRDFVNNPTGTPVEVICDKKCHVVEGSLWKEQLSGISDCIVFIDEGNEFITTVDFADKIQKTDNYYVIVTREALPALPYSVEEIYGIRTSGRYGTLKQSYHEFYRIYGTDTYEDKVSPEIIITEDSNSGYQFFEHVCIENGLKCESMNGKSNVFHYLNKHKGEKILVIADGAAFGSEIDRVLQVIHGRKNVALYLPESFEWMIMDADILKNNTVRSILSNPSEYVESKLYFSWERFFTAILIEQTKDTYLAYAKRKLNPAYLSGAIKESILRKMNIIDLNKKDE
MGSDKIHHHHHHMKGYFGPYGGQYVPEILMPALEELEAAYEEIMKDESFWKEFNDLLRDYAGRPTPLYFARRLSEKYGARIYLKREDLLHTGAHKINNAIGQVLLAKKMGKTRIIAETGAGQHGVATATAAALFGMECVIYMGEEDTIRQKPNVERMKLLGAKVVPVKSGSRTLKDAINEALRDWITNLQTTYYVIGSVVGPHPYPIIVRNFQKVIGEETKKQILEKEGRLPDYIVACVGGGSNAAGIFYPFIDSGVKLIGVEAGGEGLETGKHAASLLKGKIGYLHGSKTFVLQDDWGQVQVTHSVSAGLDYSGVGPEHAYWRETGKVLYDAVTDEEALDAFIELSRLEGIIPALESSHALAYLKKINIKGKVVVVNLSGRGDKDLESVLNHPYVRERIR
MGSDKIHHHHHHMKHLLAGILVWVIWGLCSCQSDGKVIIPSPIYVDNHYHGPADPEITWNPKTEEWMIFYTSRRPFKDQASYVGTPVGVAVSKDFVHWKFAGYCSFDGVGGQPDSEKTYWAPGVIVEGDSAHMFVTLKDDSTPVWGGPSNIVHFSAPLEDMISGWRRVNTVVDTPISIDATVVKNGDRWDMWYRDRPTEDTGGLYYAQSNDLYHWTLKGLAKGDINNVEVTKHTYQEGAYAFQWKGYFWIIADPHKGLAVYRSKDAENWEYQGIVMYEPGTRFFDNTRARHPSVIIRNDRAFIVYHVQPFLGYNPNTHEAGDDVYQKLSFLQMAELEFKDGKLICDRNKVLYK
MGSDKIHHHHHHMKHYRQVVSPQLRQQALDWILAAAQRPDPALEPEFDIADDERREAKKVRNLHRHDPLFWDDWFARSGLDALVRDHLRKPRLLRHAAFIKRHADESYIPLHQDIALWEKRYESAQTFWVALTPSRNDNGGMFYYPDDRTIFPHEFDLAYPMFKCIDLQANGISREQLVDAELDAGDVLVWPARTAHGSHNNRSGQLRIGMPIVFVEDDEFHQLNREDSMKTWIASNLKSVFPDEAITEDNLDHYLPQLCDYSLKMVTFLARFSRQFGHAPKIHDFIREPRLATLSASDAGARR
MGSDKIHHHHHHMKIAITGKGGVGKTFIASTLMRLFEKNGFKVIGVDCDPNPTLALAFGVEEEIVPLSKRHDIIEERTGAKPGTYGNIFKINPKVDDLIDKVGYKIGNITLLVMGTIEEGGEGCVCPASVLLRRLLRHLILKRDEVVILDMEAGIEHFGRKTIDTVDLMLIVIEPTKKSLITAKRMKKLANDLGIKNLGVIVNKVRNEDKELLKDIIKEELGLEVLGFVPYDEEVIKSEFLGKPINLDSKAAKEIEKIFNYIIKLKNTT
MGSDKIHHHHHHMKIAVLNQKGGSGKTTVSIHLAHAFSMIGYRVLLVDTDPQGSTRDWAAARNGEAPFSVIGLDRPILHKELPKLAQGYDFVFIDGAPRVSDLTRSAIMAVDFVLVPVQPSPLDVWAVHEVVELVQEATIYKPDLTAAFLINRKIANTALGREVTEVLGEYPFPVLKAQISQRVAFAECLNIGSTVLEAAPKSAASDEVRAVVEEILEAREETNHGRS
MGSDKIHHHHHHMKIEGLFNKYYNSFTANDKYICECILNHKEDCIKLSIDEFADKYHISTSALSRFAQKLQLPGYSELRVIIRLNETEVEYKNQSKHQLMDCYNKVIDDIEKKDCSIMFERMKKANRIIVFGEGYSQERVAKEMKRIFLPTGKIIYDVYGYDMIQALNHFIKTDDMIFFISLNGDASTIIDFAKEMRMKGIYMVSITKMISNPLARLCDENLYIQSISISVDKQLDYDVTTPYFILIELLYIKYKMYLESEHIPRK
MGSDKIHHHHHHMKIIDGNIASPLGFSADGLHAGFKKRKKDFGWIVSEVPASVAGVYTTNKVIAAPLIVTRESVKKAQKMQALVVNSGVANSCTGLQGMEDAYTMQKWTATKLKIAPELVGVASTGVIGDLMPMDTLQKGLSKLVVNGNSDDFAQAILTTDTKVKTVAVTEQFGRDEVTMAGVAKGSGMIHPNMATMLAFITCDAVISSETLQLALSQNVETTFNQITVDGDTSTNDMVLVLSNGCTLNKEILPDTPEFDKFSAMLHFVMQELAKKIAKDGEGATKLIEVEVINAPNSLDACMMAKSVVGSSLVKTAIFGEDPNWGRILAAVGYAGVDVPVDNIDIYLADIPVMLASSPVDFDEEDMQDVMRADTIKIIVDLHAGDSVGKAWGCDLSYDYVKINALYRT
MGSDKIHHHHHHMKIIILGAGQVGGTLAENLVGENNDITIVDSDKNKLRSLQDKYDLRVVVGHGAHPDVLREAGAEDADMLIAVTNSDECNMSACQIAYTLFGTPTKIARIRSEQYLHMQERLFIDSETKNSDNRTRGGFVIDELIAPEQLVTSYIQRLVEYPGALQVLEFAEGKLSLVAVRAYYGGPLVGNALAALREHMPNIDTRVAAIFRQGRPIMPRGTTIIEADDEVFFVADSRHIRAVMSEMQKLDNSYRNIMIAGGGNIGLGLAKKLERNHSVKLIEHKAERAEALSEKLQNTTVFCGDASDQELLLEEHIDQTDVFIAVTNDDEANIMSALLAKRMGAKKVMVLIQREAYVDIVQEANIDIAISPQQATISALLTHIRQGDICNVYSLRRGAAEAIEAIAHGDPSTSKVVGKQIGEIRLPPGTTIGAIVRNDEVLMAHDKTVIEQGDHVILFLVNKKFIGEVERLFQPSAFFF
MGSDKIHHHHHHMKILIIPNRGRSYNAVRPEAECYIALAEAGHDVTVISSGTNAYIDRYKKSKVKFIELKTLKKHSWAVIKQIRQYIKANNIDIVYATESKGIPNAAFACIGTKAKLVVYRGTSGGMYKTDPSNYLCMLHPRINGVIGVSSAVSANVREKVRGAIKANVETIYKGHDLSWYKEDAADLVSLGSNKKYFNILCVGSPRHHKGTHILLDAAKELNDIEDLRIILVGDNLDKQAFIDQINNSGMSEHILQPGFRSDVPAIAKACDLLILPSLSKEGLTRTVLESLSNGTPVVSSANDGVVETIENGFNGYLVPIGDVQAMADKIRMLYNDRVLLEKLSNHAQDIIKDKMSHHKTVTHMEAYFEKIIAQN
MGSDKIHHHHHHMKILILRFSSIGDIVLTTPVIRCLKKQIPNAEIHFATKASFKSILENNPYIDKLHLLESSTASFIKQLKAERFDVVIDLHSNIRTKRIKWALKAKSFTFDKLNIRKWFYVNWKWKTMPAIHIVDRYLDTVKHLGVKNDNEGLDYFIPEKDIISRDSLPQKYAAGYVAIAIGAQHATKRLPEAKLIELIGKISHPIILLGGKDDTATAARLVAYFPDTKNILNACGTYNLNQSASIVHQCMYLYTHDTGLMHIGAALQKRIISIWGNTTPELGMYAYKTEHVNWQKEDLYCRPCSKIGYNSCPKKHFRCMNEQVLPVHEIESRWN
